The nature of this data set: protein stability index of a GFP-peptide fusion (yeast GPS) (PSI 1-4); higher = more stable; sorted into four equal gates, so the index is relative within each strain. The method, boiled down:
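Yeast carrying a pooled library were grown to mid-log phase in leucine-free medium. Each library plasmid expresses Cherry and has a tiled 17-residue yeast protein peptide fused downstream of GFP. Cells were sorted into four equal gates by GFP/Cherry ratio, and plasmids from each gate were PCR-amplified, Illumina-sequenced and assigned to strains by barcode. Summing, across gates, the read frequency times the gate number gave each peptide's protein stability index.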

± gives the uncertainty stated by the source.

As to EIYRISFQLSKIRRAAR [RPS9A], the protein stability index was 1.95 ± 0.043 (doa10∆), 2.15 ± 0.062 (pdr5∆), 2.3 ± 0.048 (san1∆) and 2.29 ± 0.046 (ubr1∆).
In the case of EKADYEDEMMHEEDQKT [RPN12], the protein stability index is, setting by setting: (pdr5∆) 2.97 ± 0.15; (ubr1∆) 3.03 ± 0.17.
In the case of EKDASGKPSFVFGASDK [YOR098C/NUP1], the protein stability index by setting is: (doa10∆) 2.63 ± 0.067; (pdr5∆) 2.52 ± 0.065; (san1∆) 2.98 ± 0.076; (ubr1∆) 2.37 ± 0.074.
The matching figures for EKDAVSVFGFRTQFGGG [RPS24A]: 1.92 ± 0.068, 2.09 ± 0.094, 2 ± 0.14 and 1.93 ± 0.064.
Take EKFSPKSFISKLLGIGD [SRP54]: the protein stability index runs as follows: (doa10∆) 3.49 ± 0.14; (pdr5∆) 3.31 ± 0.15; (san1∆) 2.68 ± 0.2; (ubr1∆) 3.21 ± 0.17.
For EKGENPSCVYNLIGVIT [UBP6], in that order: 2.64 ± 0.072, 2.79 ± 0.093, 3.07 ± 0.081 and 3.06 ± 0.1.
For EKGSWEQLSPQDVLQML [BRR2], in that order: 3.05 ± 0.12, 3.27 ± 0.15, 3.42 ± 0.12 and 3.03 ± 0.088.
The sequence EKIRPLRSRSFKSTESN [YMR129W/POM152] had a protein stability index (san1∆) of 2.87 ± 0.28.
For the sequence EKKDSGSSKPAFSFGAK [YJL041W/NSP1], the protein stability index is, setting by setting: (doa10∆) 3.32 ± 0.1; (pdr5∆) 3.26 ± 0.098; (san1∆) 3.08 ± 0.073; (ubr1∆) 3.35 ± 0.051.
The matching figures for EKLLKELENNEFTENEL [ITC1]: 3.43 ± 0.074, 3.21 ± 0.078, 3.33 ± 0.069 and 3.33 ± 0.097.
EKPDNSNHNNLNLNNSE [SNF2]: the protein stability index is, setting by setting: (doa10∆) 3.02 ± 0.043; (pdr5∆) 3.19 ± 0.051; (san1∆) 3.15 ± 0.036; (ubr1∆) 3.17 ± 0.034.
Consider EKRIQYAKDILQKEFLP [RPB2], for which the protein stability index is 2.06 ± 0.055 (doa10∆), 1.85 ± 0.052 (pdr5∆), 2.06 ± 0.091 (san1∆) and 2.08 ± 0.09 (ubr1∆).
For EKRYDDKLLDFIRYDVK [CSN12], in that order: 3.3 ± 0.063, 3.25 ± 0.066, 3.22 ± 0.046 and 3.17 ± 0.066.
In the case of EKTLGKSLSKAISTGAK [RPN7], the protein stability index by setting is: (doa10∆) 2.98 ± 0.19; (pdr5∆) 3.42 ± 0.12; (san1∆) 3.53 ± 0.12; (ubr1∆) 3.57 ± 0.19.
The matching figures for EKTMMTFGKPEEEDSIL [YCS4]: 3.27 ± 0.15, 3.37 ± 0.14, 3.35 ± 0.063 and 3.27 ± 0.088.
For ELDKREDMIDQVSKKLS [SMC3], in that order: 3.12 ± 0.061, 3 ± 0.082, 2.93 ± 0.075 and 2.81 ± 0.096.
The matching figures for ELDPECQLQNSDNSEEE [RRP43]: 3.14 ± 0.075, 2.95 ± 0.066, 2.94 ± 0.054 and 3 ± 0.063.
ELDRAAMNDKDLTMGQV [RPO21]: the protein stability index is 3.29 ± 0.17 (doa10∆), 3.31 ± 0.14 (pdr5∆), 2.8 ± 0.13 (san1∆) and 3.12 ± 0.097 (ubr1∆).
With ELEDVAVKKLYAIIINY [YCS4], the protein stability index runs as follows: (doa10∆) 1.84 ± 0.057; (pdr5∆) 1.97 ± 0.065; (san1∆) 1.59 ± 0.12; (ubr1∆) 1.44 ± 0.031.
For ELENNEFTENELNVDSM [ITC1], in that order: 3.38 ± 0.07, 3.21 ± 0.073, 3.33 ± 0.065 and 3.27 ± 0.069.
As for ELENSSPELKAELRPLQ [RPS7A], the protein stability index runs as follows: (doa10∆) 3.04 ± 0.24; (pdr5∆) 3.53 ± 0.11; (san1∆) 2.97 ± 0.15; (ubr1∆) 3.64 ± 0.15.
The matching figures for ELESITESITHDSSNGL [NUT1]: 2.95 ± 0.1, 3.27 ± 0.074, 3.25 ± 0.051 and 3.2 ± 0.067.
For ELFDILSTSEDVSIEEL [IRR1], in that order: 2.66 ± 0.17, 2.15 ± 0.2, 2.6 ± 0.21 and 2 ± 0.13.
The matching figures for ELGEFFVNGVATSFSRK [FAS2]: 2.98 ± 0.07, 2.6 ± 0.075, 2.63 ± 0.1 and 2.69 ± 0.048.
For the sequence ELISLRKILESSNIVNE [YIL149C/MLP2], the protein stability index amounted to 2.17 ± 0.089 (doa10∆), 2.53 ± 0.068 (pdr5∆), 2.33 ± 0.064 (san1∆) and 2.12 ± 0.1 (ubr1∆).
For ELKKYMDKKILLNINGS [SMX2], in that order: 1.88 ± 0.059, 2.25 ± 0.062, 2 ± 0.094 and 2 ± 0.045.
For ELLLTTLSVSHGINLQN [SSN2], in that order: 1.89 ± 0.044, 2.04 ± 0.043, 1.76 ± 0.081 and 2.19 ± 0.059.
The matching figures for ELLREWLETYSENRDKF [IRR1]: 3.34 ± 0.066, 3.43 ± 0.098, 3.61 ± 0.078 and 3.51 ± 0.056.
Turning to ELLSMNIAPRLRLEDIF [RET1], the protein stability index reads like this: (doa10∆) 2.57 ± 0.065; (pdr5∆) 2.25 ± 0.046; (san1∆) 2.35 ± 0.057; (ubr1∆) 2.5 ± 0.047.
For ELQKSLSLEEVEGHLFE [FAS1], in that order: 3.16 ± 0.11, 3.32 ± 0.16, 3.35 ± 0.061 and 3.08 ± 0.098.
For ELSFYILYSFKLSGKLL [YML103C/NUP188], in that order: 1.47 ± 0.043, 1.49 ± 0.04, 1.49 ± 0.081 and 1.74 ± 0.037.
As to ELTIIKNPRVTKEYLVQ [CSN9], the protein stability index reads like this: (pdr5∆) 3 ± 0.3; (san1∆) 3.15 ± 0.11; (ubr1∆) 3.35 ± 0.091.
Consider EMKNIRGPYLVIVPLST [SNF2], for which the protein stability index was found to be 1.44 ± 0.054 (doa10∆), 1.51 ± 0.053 (pdr5∆), 1.44 ± 0.087 (san1∆) and 1.38 ± 0.043 (ubr1∆).
For the sequence EMSNKVLKVDKRFMNTS [BRR2], the protein stability index reads like this: (doa10∆) 2.9 ± 0.04; (pdr5∆) 2.96 ± 0.05; (san1∆) 2.99 ± 0.038; (ubr1∆) 2.93 ± 0.039.
For ENANAANNGAAFSPLTT [MED2], in that order: 3.1 ± 0.11, 2.92 ± 0.1, 2.88 ± 0.1 and 2.79 ± 0.057.
The matching figures for ENAYKSENAPSASSKEF [YAR002W/NUP60]: 2.18 ± 0.066, 1.86 ± 0.062, 2.15 ± 0.078 and 2.15 ± 0.074.
For ENCLNNDPEILKKIASI [SWI1], in that order: 2.48 ± 0.11, 2.08 ± 0.074, 2.48 ± 0.1 and 2.71 ± 0.092.

Values taken from the supplement of paper PMC9732359.
